The chains are these.
B1: 14-3-3 protein zeta/delta (Homo sapiens), P63104 (parent)
chain: MDKNELVQKAKLAEQAERYDDMAACMKSVTEQGAELSNEERNLLSVAYKNVVGARRSSWRVVSSIEQKTEGAEKKQQMAREYREKIETELRDICNDVLSLLEKFLIPNASQAESKVFYLKMKGDYYRYLAEVAAGDDKKGIVDQSQQAYQEAFEISKKEMQPTHPIRLGLALNFSVFYYEILNSPEKACSLAKTAFDEAIAELDTLSEESYKDSTLIMQLLRDNLTLWTSDTQGDEAEAGEGGEN

Variants of B1 are the subject of the test. Particulars: with m3k5_human MAP3K5, Q99683.
m3k5_human MAP3K5, Q99683, sequence (Q99683 whole entry): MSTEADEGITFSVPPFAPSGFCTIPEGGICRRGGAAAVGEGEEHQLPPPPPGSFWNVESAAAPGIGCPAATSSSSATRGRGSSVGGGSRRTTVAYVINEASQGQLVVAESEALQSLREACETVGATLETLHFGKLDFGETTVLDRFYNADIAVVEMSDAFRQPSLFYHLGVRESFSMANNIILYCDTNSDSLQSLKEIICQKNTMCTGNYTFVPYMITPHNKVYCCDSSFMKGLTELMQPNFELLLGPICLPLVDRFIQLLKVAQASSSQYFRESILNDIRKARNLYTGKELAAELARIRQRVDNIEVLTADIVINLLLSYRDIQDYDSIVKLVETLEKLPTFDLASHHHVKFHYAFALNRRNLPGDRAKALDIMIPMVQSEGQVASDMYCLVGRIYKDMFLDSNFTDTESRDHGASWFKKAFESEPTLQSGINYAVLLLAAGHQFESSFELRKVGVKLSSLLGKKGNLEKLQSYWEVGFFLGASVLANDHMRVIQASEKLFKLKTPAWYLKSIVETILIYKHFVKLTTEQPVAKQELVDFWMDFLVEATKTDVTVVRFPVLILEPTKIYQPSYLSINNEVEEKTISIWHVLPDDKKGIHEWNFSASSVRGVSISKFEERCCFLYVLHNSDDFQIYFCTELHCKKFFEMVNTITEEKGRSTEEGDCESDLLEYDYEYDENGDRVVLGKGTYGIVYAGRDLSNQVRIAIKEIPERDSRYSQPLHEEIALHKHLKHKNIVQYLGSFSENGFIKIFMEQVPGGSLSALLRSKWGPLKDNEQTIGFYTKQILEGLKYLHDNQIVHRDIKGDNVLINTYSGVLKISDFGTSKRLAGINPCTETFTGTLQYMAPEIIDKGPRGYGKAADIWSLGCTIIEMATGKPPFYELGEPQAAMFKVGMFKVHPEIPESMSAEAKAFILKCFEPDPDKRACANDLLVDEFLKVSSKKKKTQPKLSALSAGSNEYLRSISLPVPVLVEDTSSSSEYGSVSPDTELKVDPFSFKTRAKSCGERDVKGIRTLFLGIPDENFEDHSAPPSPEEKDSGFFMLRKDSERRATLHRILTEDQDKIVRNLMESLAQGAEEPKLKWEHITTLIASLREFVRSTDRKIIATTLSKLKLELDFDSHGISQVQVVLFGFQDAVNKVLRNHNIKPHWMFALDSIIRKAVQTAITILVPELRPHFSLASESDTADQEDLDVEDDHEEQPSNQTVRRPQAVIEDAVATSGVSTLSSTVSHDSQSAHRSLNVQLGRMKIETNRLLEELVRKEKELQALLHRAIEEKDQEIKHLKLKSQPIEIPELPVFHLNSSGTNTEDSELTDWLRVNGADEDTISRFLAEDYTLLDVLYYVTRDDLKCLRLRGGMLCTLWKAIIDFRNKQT
In the case of K49E;R56E;R60E;V176D;L220E, the “effect of a mutation on the interaction” value is “decreasing interaction”.

These data come from IntAct's records for PubMed 15023544.
